The text below walks through data of patent publication US20240238448.

Bounds are passed on as bounds.

The data set deals with ZFHD1-FKBP (ZF-FKBP fusion) (synthetic construct) (UniProt P08046+P14859). Description: cell_activity. The conditions noted are these: GFP reporter in 293-ZF-FKBP cells with CEM87 recruiting BRD4; dose-dependent; indirect evidence of binding; no response in WT 293 cells.
ZFHD1-FKBP (ZF-FKBP fusion) (synthetic construct), sequence (P08046 333-390, chain 1 of 2): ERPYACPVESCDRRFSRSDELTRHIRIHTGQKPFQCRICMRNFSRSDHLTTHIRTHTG
ZFHD1-FKBP (ZF-FKBP fusion) (synthetic construct), sequence (P14859 378-439, chain 2 of 2): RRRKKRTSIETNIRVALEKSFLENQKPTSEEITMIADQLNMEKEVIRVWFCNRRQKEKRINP

“ZF binding domain recognition sequence (ZFHD1 cognate site) upstream of JET promoter in AAV2-BD-JET-GFP” had an activity (fold activation) of over 10.
